# Laboratory results from patent publication US20260035475A1 (BIOARCTIC, published 2026).
# T1: chimeric TfR1 consisting of human protease like domain grafted on mouse TfR1 ectodomain (SEQ ID NO:78) (human/mouse chimera)
# T1 construct: His-tagged; also called h/m protease-like domain chimera
# T1 chain: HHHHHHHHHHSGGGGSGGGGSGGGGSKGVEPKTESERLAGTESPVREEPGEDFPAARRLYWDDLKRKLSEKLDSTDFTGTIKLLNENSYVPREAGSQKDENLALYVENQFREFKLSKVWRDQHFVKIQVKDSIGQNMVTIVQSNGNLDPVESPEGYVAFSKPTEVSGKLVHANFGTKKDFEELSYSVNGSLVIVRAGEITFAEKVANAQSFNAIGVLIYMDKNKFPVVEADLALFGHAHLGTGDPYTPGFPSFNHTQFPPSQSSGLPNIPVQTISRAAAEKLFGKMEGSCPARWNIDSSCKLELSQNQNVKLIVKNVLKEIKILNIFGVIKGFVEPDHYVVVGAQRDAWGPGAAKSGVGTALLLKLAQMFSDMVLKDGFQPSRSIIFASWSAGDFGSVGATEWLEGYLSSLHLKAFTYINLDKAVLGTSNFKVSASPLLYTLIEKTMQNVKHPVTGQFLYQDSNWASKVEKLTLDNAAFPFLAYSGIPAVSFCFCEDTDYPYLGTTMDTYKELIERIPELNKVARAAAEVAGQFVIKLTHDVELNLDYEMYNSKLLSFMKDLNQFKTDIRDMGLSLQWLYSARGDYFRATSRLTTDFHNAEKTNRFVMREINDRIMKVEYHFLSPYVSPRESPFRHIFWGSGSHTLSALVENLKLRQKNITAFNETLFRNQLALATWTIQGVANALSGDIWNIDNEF
# Key:
# [1] = molecular target: T1, chimeric TfR1 consisting of human …; test: indirect ELISA on coated h/m protease-like domain chimera (1 ug/ml), IgG dilution series; x axis printed 'TfR (ng/ml)' [D]
# Protocol: Plasma samples serially diluted from a starting dilution of 1/450 or hybridoma supernatants diluted 1/2 were added to the plates (50 μl/well; dilution buffer: PBS with 0.1% BSA and 0.05% TWEEN®-20) and incubated for 2 h at room temperature and then the plates were washed four times. […] After another wash (as above), 50 μl/well TMB substrate (K-Blue® Aqueous, Neogen) was added, and the reaction was stopped after 10-15 min with 50 μl/well of 0.5 M H₂SO₄. The optical density at 450 nm was read using a plate reader (Tecan). The endpoint titers were defined as the dilution above the average of the blank wells (background) plus 3 standard deviations of the blank wells.
# The coated plates were then blocked. Dilution series of mouse IgG of the analyzed antibodies were prepared in PBS and incubated on the ELISA plates. Unbound antibodies were then washed off before incubating wells with a HRP-conjugated secondary, anti-mouse-IgG for 1 h. Plates were then washed again before addition of HRP substrate TMB for development and detection of antibody binding to the wells. TMB development was stopped by adding 0.5 M H₂SO₄ to the wells and ELISA responses measured as the OD at 450 nm in an ELISA plate reader.
# [2] = molecular target: T2, ectodomain of human TfR1 (His10-hTfR1; SEQ ID NO:74) (human, UniProt P02786 89-760); test: indirect ELISA on coated hTfR1 ectodomain (1 ug/ml), Fab 1:3 dilutions, anti-human IgG F(ab')2-HRP [lower panel]
# T2 construct: His-tagged ectodomain; also called ectodomain of hTfR1
# T2 sequence (P02786 other isoform, or with tags, fused parts or gaps): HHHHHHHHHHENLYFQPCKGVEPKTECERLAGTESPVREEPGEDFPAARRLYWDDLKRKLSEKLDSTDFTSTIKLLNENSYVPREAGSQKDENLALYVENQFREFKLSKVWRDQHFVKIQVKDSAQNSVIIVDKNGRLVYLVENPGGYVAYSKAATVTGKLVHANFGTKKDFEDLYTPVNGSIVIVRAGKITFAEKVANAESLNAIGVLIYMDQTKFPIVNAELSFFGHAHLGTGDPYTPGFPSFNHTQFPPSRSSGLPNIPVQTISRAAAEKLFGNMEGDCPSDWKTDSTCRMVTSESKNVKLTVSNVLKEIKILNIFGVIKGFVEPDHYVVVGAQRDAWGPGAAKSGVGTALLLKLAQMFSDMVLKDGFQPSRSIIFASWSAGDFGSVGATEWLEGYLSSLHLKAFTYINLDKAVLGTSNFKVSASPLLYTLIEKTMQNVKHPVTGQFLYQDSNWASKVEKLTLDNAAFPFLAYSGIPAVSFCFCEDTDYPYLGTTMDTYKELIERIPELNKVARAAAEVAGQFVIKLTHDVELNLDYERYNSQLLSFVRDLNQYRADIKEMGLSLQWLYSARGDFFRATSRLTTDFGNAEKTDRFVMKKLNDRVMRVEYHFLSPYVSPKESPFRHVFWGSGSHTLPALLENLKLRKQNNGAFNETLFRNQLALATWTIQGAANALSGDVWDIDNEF
# Protocol: For the indirect ELISA, half area 96-well plates (Corning, #3690) were coated with 1 μg/ml recombinant ectodomain of hTfR1 (SEQ ID NO:74) in PBS overnight at 4° C. The coated plates were blocked using Pierce protein-free blocking solution (Thermo Fisher Scientific, #37572) for 1 h at room temperature with shaking and washed four times in PBS containing 0.1% TWEEN-20. Serial dilutions (1:3) of various expressed constructs in incubation buffer (1% BSA, 0.1% TWEEN-20 in PBS) were incubated for 1 h at room temperature. […] Following four wash steps, K-Blue® Aqueous TMB substrate (Neogen, #331177) was added to the wells for 15 min at room temperature before the reaction was stopped with 1:1 dilution of 0.5 M H₂SO₄. The optical density at 450 nm was recorded (Spark, Tecan) and background signal was subtracted before analysis.
Binder,binding result [1],EC50 (read off the curve) [2] [nM]
"24B4 (mouse monoclonal antibody) (antibody, V domains shown) VH: EVQLQQFGAELVKPGTSVKISCKASGYTFTDYNMDWVKQGHGKGLEWIGDINPNYDTTSYSQKFKGKATLTVDKSSSTAYMELRSLTSEDTAVYYCARSEAGNYYWYFDVWGAGTTVTVSS VL: DIVMSQSPSSLAVSVGEKVTMSCKSSQSLLYSSNRKNYLAWYRQKPGQSPKLLIYWASTRESGVPDRFTGSGSGTDFTLTISSVKAEDLAVYSCQQYYNYPYTFGGGTKLEIK",binds,
"26D3 (mouse monoclonal antibody) (antibody, V domains shown) VH: EVQLQQFGVELVKPGASVKISCKASGYIFTDYNMDWVKQSHGKSLEWIGDINPDYDTTSYNEKFKGKATLTVDKSSSTAYMELRSLTSEDTAVYYCARGGYSGSSYYHPMDYWGQGTSVTVSS VL: DIVMSQSPSSLAVSVGEKITMSCKSSQSLLYSTNQKNYLAWYQQKPGQSPELLIYWASTRESGVPDRFTGSGSGTDFTLTISNVRAEDLAVYYCQQYFIYPRTFGGGTKLEIK",binds,
"h26D3-Fab (humanized 26D3) (Fab, V domains shown, His-tagged Fab) VH: EVQLVQSGAEVKKPGSSVKVSCKASGYIFTDYNMDWVRQAPGQGLEWIGDINPDYDTTSYNEKFKGRATLTVDKSTSTAYMELSSLRSEDTAVYYCARGGYSGSSYYHPMDYWGQGTLVTVSS VL: DIQMTQSPSSVSASVGDRVTITCKSSQSLLYSTNQKNYLAWYQQKPGKAPKLLIYWASTRESGVPSRFSGSGSGTDFTLTISSLQPEDFATYYCQQYFIYPRTFGQGTKVEIK",,~400
"h26D3 variant HC10 Fab (VH Y106A) (Fab, V domains shown, Single mutant, His-tagged Fab) VH: EVQLVQSGAEVKKPGSSVKVSCKASGYIFTDYNMDWVRQAPGQGLEWIGDINPDYDTTSYNEKFKGRATLTVDKSTSTAYMELSSLRSEDTAVYYCARGGYSGSSAYHPMDYWGQGTLVTVSS VL: DIQMTQSPSSVSASVGDRVTITCKSSQSLLYSTNQKNYLAWYQQKPGKAPKLLIYWASTRESGVPSRFSGSGSGTDFTLTISSLQPEDFATYYCQQYFIYPRTFGQGTKVEIK",,~1000
